PMC2756588

T1: Abp1, P15891
T1 sequence (P15891 535-592, looked up): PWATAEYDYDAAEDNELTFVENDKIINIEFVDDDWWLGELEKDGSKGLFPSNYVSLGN

T2: Bbc1, P47068
T2 sequence (P47068 1-78, looked up): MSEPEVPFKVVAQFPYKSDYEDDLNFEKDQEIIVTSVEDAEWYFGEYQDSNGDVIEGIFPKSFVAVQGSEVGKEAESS

T3: Boi1, P38041
T3 sequence (P38041 1-86, looked up): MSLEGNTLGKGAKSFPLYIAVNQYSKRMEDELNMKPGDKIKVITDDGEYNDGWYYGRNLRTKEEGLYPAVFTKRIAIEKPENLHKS

T4: Boi2, P39969
T4 sequence (P39969 32-116, looked up): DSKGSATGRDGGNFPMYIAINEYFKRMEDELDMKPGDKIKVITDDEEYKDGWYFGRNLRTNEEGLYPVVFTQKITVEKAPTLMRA

T5: Bud14, P27637
T5 sequence (P27637 247-328, looked up): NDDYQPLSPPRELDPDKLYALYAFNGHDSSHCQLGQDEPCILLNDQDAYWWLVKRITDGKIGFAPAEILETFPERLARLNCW

T6: Bzz1-1, P38822
T6 sequence (P38822 478-572, looked up): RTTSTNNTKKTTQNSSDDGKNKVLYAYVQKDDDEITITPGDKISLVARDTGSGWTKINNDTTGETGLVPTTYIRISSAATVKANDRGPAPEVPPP

T7: Bzz1-2, P38822
T7 sequence (P38822 568-633, looked up): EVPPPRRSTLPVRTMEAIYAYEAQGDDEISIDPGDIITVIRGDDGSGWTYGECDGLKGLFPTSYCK

T8: Cdc25, P04821
T8 sequence (P04821 50-136, looked up): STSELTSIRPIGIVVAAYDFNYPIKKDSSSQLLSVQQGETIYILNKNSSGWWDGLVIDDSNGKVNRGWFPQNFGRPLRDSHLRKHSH

T9: Cyk3, Q07533
T9 sequence (Q07533 1-83, looked up): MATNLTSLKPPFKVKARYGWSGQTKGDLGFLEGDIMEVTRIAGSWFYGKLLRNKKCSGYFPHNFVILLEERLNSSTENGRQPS

T10: Fus1, P11710
T10 sequence (P11710 432-512, looked up): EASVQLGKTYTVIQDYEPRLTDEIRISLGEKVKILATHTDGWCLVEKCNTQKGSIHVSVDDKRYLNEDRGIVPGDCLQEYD

T11: Hof1, Q05080
T11 sequence (Q05080 590-669, looked up): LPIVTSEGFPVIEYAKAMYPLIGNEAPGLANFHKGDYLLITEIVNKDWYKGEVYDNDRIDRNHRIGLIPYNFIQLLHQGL

T12: Hse1, P38753
T12 sequence (P38753 208-285, looked up): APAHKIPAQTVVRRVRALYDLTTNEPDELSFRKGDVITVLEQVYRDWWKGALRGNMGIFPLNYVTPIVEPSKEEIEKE

T13: Lsb1, P53281
T13 sequence (P53281 45-122, looked up): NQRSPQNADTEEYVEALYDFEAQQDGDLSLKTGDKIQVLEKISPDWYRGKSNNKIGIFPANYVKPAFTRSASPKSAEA

T14: Lsb3, P43603
T14 sequence (P43603 385-451, looked up): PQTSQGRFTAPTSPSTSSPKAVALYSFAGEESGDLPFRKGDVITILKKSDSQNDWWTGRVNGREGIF

T15: Lsb4, P32793
T15 sequence (P32793 402-468, looked up): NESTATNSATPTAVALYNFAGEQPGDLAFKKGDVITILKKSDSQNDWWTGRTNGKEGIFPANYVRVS

T16: Myo5, Q04439
T16 sequence (Q04439 1072-1160, looked up): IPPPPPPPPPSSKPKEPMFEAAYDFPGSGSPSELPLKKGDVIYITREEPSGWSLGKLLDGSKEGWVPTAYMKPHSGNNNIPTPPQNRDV

T17: Nbp2, Q12163
T17 sequence (Q12163 103-180, looked up): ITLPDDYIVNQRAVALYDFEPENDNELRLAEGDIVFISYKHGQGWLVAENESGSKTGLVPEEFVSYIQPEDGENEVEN

T18: Pex13, P80667
T18 sequence (P80667 295-386, looked up): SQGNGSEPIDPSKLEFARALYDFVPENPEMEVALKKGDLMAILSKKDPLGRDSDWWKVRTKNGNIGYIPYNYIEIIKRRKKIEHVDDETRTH

T19: Pin3, Q06449
T19 sequence (Q06449 53-122, looked up): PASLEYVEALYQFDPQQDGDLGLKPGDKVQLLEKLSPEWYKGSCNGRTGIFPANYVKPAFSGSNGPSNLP

T20: Sla1-2, P32790
T20 sequence (P32790 60-140, looked up): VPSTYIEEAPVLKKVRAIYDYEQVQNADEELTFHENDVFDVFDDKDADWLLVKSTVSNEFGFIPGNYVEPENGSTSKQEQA

T21: Sla1-3, P32790
T21 sequence (P32790 344-424, looked up): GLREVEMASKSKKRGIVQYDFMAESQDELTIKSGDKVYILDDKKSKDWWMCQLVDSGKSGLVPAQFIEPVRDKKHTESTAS


What was measured:
Assay in all cases: SPOT array
Abp1, P15891 = target: T1, Abp1, P15891; conditions: median of control spots 935
Bbc1, P47068 = target: T2, Bbc1, P47068; conditions: median of control spots 796
Bem1-1, P29366 = conditions: median of control spots 4282
Sequence of Bem1-1, P29366 (P29366 55-141): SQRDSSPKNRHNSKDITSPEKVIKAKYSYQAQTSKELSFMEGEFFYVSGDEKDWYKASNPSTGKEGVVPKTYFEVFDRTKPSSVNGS

Bem1-2, P29366 = conditions: median of control spots 4347
Sequence of Bem1-2, P29366 (P29366 139-227): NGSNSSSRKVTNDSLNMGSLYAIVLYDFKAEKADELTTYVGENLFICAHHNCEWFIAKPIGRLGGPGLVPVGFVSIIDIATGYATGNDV

Boi1, P38041 = target: T3, Boi1, P38041; conditions: median of control spots 1162
Boi2, P39969 = target: T4, Boi2, P39969; conditions: median of control spots 1161
Bud14, P27637 = target: T5, Bud14, P27637; conditions: median of control spots 956
Bzz1-1, P38822 = target: T6, Bzz1-1, P38822; conditions: median of control spots 4446
Bzz1-2, P38822 = target: T7, Bzz1-2, P38822; conditions: median of control spots 4538
Cdc25, P04821 = target: T8, Cdc25, P04821; conditions: median of control spots 969
Cyk3, Q07533 = target: T9, Cyk3, Q07533; conditions: median of control spots 1451
Fus1, P11710 = target: T10, Fus1, P11710; conditions: median of control spots 1200
GST = conditions: median of control spots 978
Hof1, Q05080 = target: T11, Hof1, Q05080; conditions: median of control spots 4086
Hse1, P38753 = target: T12, Hse1, P38753; conditions: median of control spots 1727
Lsb1, P53281 = target: T13, Lsb1, P53281; conditions: median of control spots 388
Lsb3, P43603 = target: T14, Lsb3, P43603; conditions: median of control spots 406
Lsb4, P32793 = target: T15, Lsb4, P32793; conditions: median of control spots 397
Myo3, P36006 = conditions: median of control spots 468
Myo5, Q04439 = target: T16, Myo5, Q04439; conditions: median of control spots 471
Nbp2, Q12163 = target: T17, Nbp2, Q12163; conditions: median of control spots 357
Pex13, P80667 = target: T18, Pex13, P80667; conditions: median of control spots 1341
Pin3, Q06449 = target: T19, Pin3, Q06449; conditions: median of control spots 2171
Rvs167, P39743 = conditions: median of control spots 2707
Sequence of Rvs167, P39743 (P39743 419-482): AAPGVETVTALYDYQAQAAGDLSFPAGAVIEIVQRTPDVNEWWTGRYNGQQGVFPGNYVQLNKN

Sho1, P40073 = conditions: median of control spots 1148
Sequence of Sho1, P40073 (P40073 287-367): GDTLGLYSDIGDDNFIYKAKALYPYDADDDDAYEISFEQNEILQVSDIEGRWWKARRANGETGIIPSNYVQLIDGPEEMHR

Sla1-2, P32790 = target: T20, Sla1-2, P32790; conditions: median of control spots 712
Sla1-3, P32790 = target: T21, Sla1-3, P32790; conditions: median of control spots 5475

Binder | SPOT intensity (Abp1, P15891) | SPOT intensity (Bbc1, P47068) | SPOT intensity (Bem1-1, P29366) | SPOT intensity (Bem1-2, P29366) | SPOT intensity (Boi1, P38041) | SPOT intensity (Boi2, P39969) | SPOT intensity (Bud14, P27637) | SPOT intensity (Bzz1-1, P38822) | SPOT intensity (Bzz1-2, P38822) | SPOT intensity (Cdc25, P04821) | SPOT intensity (Cyk3, Q07533) | SPOT intensity (Fus1, P11710) | SPOT intensity (GST) | SPOT intensity (Hof1, Q05080) | SPOT intensity (Hse1, P38753) | SPOT intensity (Lsb1, P53281) | SPOT intensity (Lsb3, P43603) | SPOT intensity (Lsb4, P32793) | SPOT intensity (Myo3, P36006) | SPOT intensity (Myo5, Q04439) | other results
SGVRLPAPPPPPRRG | 0 | 0 | 3 | 0 | 0 | 1 | 3 | 6 | 20 | 0 | 1 | 0 | 0 | 633 | 0 | 0 | 0 | 0 | 0 | 0 | SPOT intensity (Nbp2, Q12163): 0; SPOT intensity (Pex13, P80667): 55; SPOT intensity (Pin3, Q06449): 4; SPOT intensity (Rvs167, P39743): 3630; SPOT intensity (Sho1, P40073): 0; SPOT intensity (Sla1-2, P32790): 3; SPOT intensity (Sla1-3, P32790): 0
RLPAPPPPPRRGPAP | 0 | 0 | 0 | 2 | 0 | 1 | 3 | 31 | 9 | 0 | 0 | 0 | 0 | 5 | 1 | 0 | 0 | 0 | 0 | 0 | SPOT intensity (Nbp2, Q12163): 1; SPOT intensity (Pex13, P80667): 75; SPOT intensity (Pin3, Q06449): 8; SPOT intensity (Rvs167, P39743): 1500; SPOT intensity (Sho1, P40073): 0; SPOT intensity (Sla1-2, P32790): 0; SPOT intensity (Sla1-3, P32790): 1
RRGPAPPPPPRASRP | 0 | 0 | 3 | 11 | 0 | 0 | 8 | 45 | 27 | 0 | 0 | 0 | 1 | 2 | 10 | 0 | 0 | 1 | 0 | 0 | SPOT intensity (Nbp2, Q12163): 0; SPOT intensity (Pex13, P80667): 17; SPOT intensity (Pin3, Q06449): 17; SPOT intensity (Rvs167, P39743): 3340; SPOT intensity (Sho1, P40073): 0; SPOT intensity (Sla1-2, P32790): 0; SPOT intensity (Sla1-3, P32790): 14
RPVPPPPPMRTTTEG | 0 | 0 | 3 | 6 | 0 | 0 | 0 | 19 | 664 | 0 | 0 | 1 | 0 | 23 | 9 | 0 | 0 | 0 | 0 | 2 | SPOT intensity (Nbp2, Q12163): 0; SPOT intensity (Pex13, P80667): 185; SPOT intensity (Pin3, Q06449): 59; SPOT intensity (Rvs167, P39743): 7510; SPOT intensity (Sho1, P40073): 2; SPOT intensity (Sla1-2, P32790): 0; SPOT intensity (Sla1-3, P32790): 2

Continued, in another order:

SPOT intensity (Abp1, P15891) | SPOT intensity (Bbc1, P47068) | SPOT intensity (Bem1-1, P29366) | SPOT intensity (Bem1-2, P29366) | SPOT intensity (Boi1, P38041) | SPOT intensity (Boi2, P39969) | SPOT intensity (Bud14, P27637) | SPOT intensity (Bzz1-1, P38822) | SPOT intensity (Bzz1-2, P38822) | SPOT intensity (Cdc25, P04821) | SPOT intensity (Cyk3, Q07533) | SPOT intensity (Fus1, P11710) | SPOT intensity (GST) | SPOT intensity (Hof1, Q05080) | SPOT intensity (Hse1, P38753) | SPOT intensity (Lsb1, P53281) | SPOT intensity (Lsb3, P43603) | SPOT intensity (Lsb4, P32793) | SPOT intensity (Myo3, P36006) | SPOT intensity (Myo5, Q04439) | Binder | other results
0 | 0 | 5 | 0 | 0 | 1 | 0 | 6 | 233 | 0 | 2 | 0 | 0 | 0 | 7 | 0 | 0 | 0 | 0 | 1 | RNNRPVPPPPPMRTT | SPOT intensity (Nbp2, Q12163): 0; SPOT intensity (Pex13, P80667): 201; SPOT intensity (Pin3, Q06449): 31; SPOT intensity (Rvs167, P39743): 1870; SPOT intensity (Sho1, P40073): 0; SPOT intensity (Sla1-2, P32790): 1; SPOT intensity (Sla1-3, P32790): 0
0 | 0 | 0 | 0 | 1 | 0 | 6 | 7 | 0 | 0 | 1 | 1 | 1 | 0 | 0 | 0 | 0 | 0 | 0 | 1 | PAPPPPPRASRPTPN | SPOT intensity (Nbp2, Q12163): 0; SPOT intensity (Pex13, P80667): 56; SPOT intensity (Pin3, Q06449): 6; SPOT intensity (Rvs167, P39743): 514; SPOT intensity (Sho1, P40073): 0; SPOT intensity (Sla1-2, P32790): 2; SPOT intensity (Sla1-3, P32790): 0
